# Source: article PMC12583513, “Deciphering the molecular mechanism of the bacterial division motor TolQRA” (Cell Discovery, 2025)
# Values joined by “and” are separate entries in the source; they are usually repeats but may differ in a detail not shown here. Identical values can stand only once.
# T1: TolA (residues 34–421) (Escherichia coli K12, UniProt P19934 34-421, RED-tris-NTA dye on the His tag)
# T1 construct: TolA of Escherichia coli K12, residues 34-421, amplified from genomic DNA into a modified pET28a; also called soluble TolA; TolA with the periplasmic loop TolA_β; source: E. coli BL21(DE3), purified (Ni-NTA column, desalting); not shown: 8x His, C-terminal, kept
# T1 sequence (looked up): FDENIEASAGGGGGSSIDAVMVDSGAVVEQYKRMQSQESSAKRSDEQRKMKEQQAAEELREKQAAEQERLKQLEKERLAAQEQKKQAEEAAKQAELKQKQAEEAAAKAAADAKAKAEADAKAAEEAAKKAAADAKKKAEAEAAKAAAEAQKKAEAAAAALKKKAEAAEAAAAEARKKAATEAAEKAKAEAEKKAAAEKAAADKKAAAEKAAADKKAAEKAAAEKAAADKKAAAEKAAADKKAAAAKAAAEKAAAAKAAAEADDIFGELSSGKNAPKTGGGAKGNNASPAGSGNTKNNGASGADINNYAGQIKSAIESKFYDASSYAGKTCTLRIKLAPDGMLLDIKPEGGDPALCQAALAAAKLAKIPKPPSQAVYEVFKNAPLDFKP
# T2: TolA (residues 58–421) (Escherichia coli K12, UniProt P19934 58-421, RED-tris-NTA dye on the His tag)
# T2 construct: TolA of Escherichia coli K12, residues 58-421, amplified from genomic DNA into a modified pET28a; also called soluble TolA without TolA_β; source: E. coli BL21(DE3), purified (Ni-NTA column, desalting); not shown: 8x His, C-terminal, kept
# T2 sequence (looked up): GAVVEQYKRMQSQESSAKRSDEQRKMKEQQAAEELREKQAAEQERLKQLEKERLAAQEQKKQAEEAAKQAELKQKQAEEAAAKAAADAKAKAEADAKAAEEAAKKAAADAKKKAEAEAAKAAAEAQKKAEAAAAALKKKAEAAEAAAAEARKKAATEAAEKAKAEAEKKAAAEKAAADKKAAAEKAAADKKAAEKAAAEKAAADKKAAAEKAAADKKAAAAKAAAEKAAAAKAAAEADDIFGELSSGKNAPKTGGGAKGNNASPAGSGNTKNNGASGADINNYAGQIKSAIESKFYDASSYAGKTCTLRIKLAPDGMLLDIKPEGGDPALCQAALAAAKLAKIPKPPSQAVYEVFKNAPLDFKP
# B1: TolR (residues 60–133) (domain or fragment, Escherichia coli K12, UniProt P0ABV6 60-133, looked up)
# chain: DNPPVIVEVSGIGQYTVVVEKDRLERLPPEQVVAEVSSRFKANPKTVFLIGGAKDVPYDEIIKALNLLHSAGVK
# notes: TolR of Escherichia coli K12, residues 60-133 of the periplasmic domain, amplified from genomic DNA into a modified pET28a; also called TolR^60–133; TolR lacking both β1/α1 and β6; source: E. coli BL21(DE3), purified (Strep-Tactin column, desalting)
# B2: TolQ (natural protein, Escherichia coli (strain K12))
# chain: MTDMNILDLFLKASLLVKLIMLILIGFSIASWAIIIQRTRILNAAAREAEAFEDKFWSGIELSRLYQESQGKRDNLTGSEQIFYSGFKEFVRLHRANSHAPEAVVEGASRAMRISMNRELENLETHIPFLGTVGSISPYIGLFGTVWGIMHAFIALGAVKQATLQMVAPGIAEALIATAIGLFAAIPAVMAYNRLNQRVNKLELNYDNFMEEFTAILHRQAFTVSESNKG
# notes: TolQ of Escherichia coli strain K12; the operon encoding TolQRA was cloned into pTRC99a; no tag on TolQ in this construct; The whole tolQRA operon was cloned, so the whole gene is implied; a minor hexameric class (six TolQ subunits) was also seen; also called TolQ1; TolQ2; source: E. coli C43 (DE3), co-expressed from pTRC99a-TolQR(Strep)A(His), purified as complex (HisTrap + Superdex 200, …)
# Legend:
# [1] = target: T1, TolA (residues 34–421); test: MST; TolA labelled with RED-tris-NTA dye, fixed at 50 nM; TolR titrated in 16 points from 150 μM to 4.58 nM; 20 mM HEPES pH 7.8, 150 mM NaCl; 25 °C; Monolith NT.115; conditions: both partners purified
# [2] = target: T2, TolA (residues 58–421); test: as above; conditions: both partners purified
# [3] = target: the molecule itself; test: cryo-EM structure; TolQRA co-expressed, purified by the His tag of TolA in DDM/CHS then LMNG/CHS, reconstituted in MSP1D1 nanodiscs with E. coli total lipid extract; 20 mM Tris pH 7.8, 150 mM NaCl; classes with one, two or three TolA
Binder,binding result [1],binding result [2],stoichiometry N [3]
B1,binds,binds,–
B2,–,–,5 and 6
